Columns and labels:
[1] = target: topoisomerase I from H358 cells (serine-phosphorylated) (human) (UniProt P11387); assay: IP/Western analysis, FIG. 5D upper panel
[2] = target: topoisomerase I from H358 cells (serine-phosphorylated) (human) (UniProt P11387); assay: co-immunoprecipitation followed by Western analysis, 48 hours after Adp14 (moi 20 pfu/cell)
[3] = target: topoisomerase I from H358 cells (serine-phosphorylated) (human) (UniProt P11387); assay: IP/Western analysis, FIG. 5D upper panel lane 5

Chain of topoisomerase I from H358 cells (serine-phosphorylated) (human) (P11387 2-765 limits assumed): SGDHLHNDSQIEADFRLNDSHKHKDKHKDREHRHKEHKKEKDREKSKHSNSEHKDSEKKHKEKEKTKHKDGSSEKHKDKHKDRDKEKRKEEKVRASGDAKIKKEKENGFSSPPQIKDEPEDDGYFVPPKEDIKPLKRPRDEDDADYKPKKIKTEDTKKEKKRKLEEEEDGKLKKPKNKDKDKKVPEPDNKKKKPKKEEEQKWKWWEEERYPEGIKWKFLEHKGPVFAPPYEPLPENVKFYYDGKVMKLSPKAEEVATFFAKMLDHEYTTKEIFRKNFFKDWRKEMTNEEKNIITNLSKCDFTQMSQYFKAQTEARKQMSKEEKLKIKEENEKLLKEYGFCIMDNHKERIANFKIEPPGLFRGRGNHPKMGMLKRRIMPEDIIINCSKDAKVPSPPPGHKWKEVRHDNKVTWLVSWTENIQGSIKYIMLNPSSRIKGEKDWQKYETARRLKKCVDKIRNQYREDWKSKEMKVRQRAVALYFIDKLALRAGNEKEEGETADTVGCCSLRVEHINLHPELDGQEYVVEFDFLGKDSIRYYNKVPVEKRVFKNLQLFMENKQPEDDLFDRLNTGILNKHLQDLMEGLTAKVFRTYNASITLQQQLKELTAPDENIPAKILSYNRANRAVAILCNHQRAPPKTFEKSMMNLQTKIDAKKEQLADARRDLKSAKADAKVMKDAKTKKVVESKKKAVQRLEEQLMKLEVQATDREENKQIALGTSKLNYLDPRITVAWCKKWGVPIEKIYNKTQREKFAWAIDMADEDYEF

p14ARF (ARF), cellular protein in nuclear extracts (endogenous or expressed from the Adp14 adenoviral vector) (from UniProt Q8N726 1-132)
3 fold: fold increase in ARF/topoisomerase I complex formation in Adp14-treated H358 cells against Ad1β-treated, control siRNA treated, or non-vector treated cells [1] | fold increase of co-immunoprecipitated ARF-topoisomerase I complexes after Adp14 treatment against untreated H358 cells [2] | fold decrease in ARF/topoisomerase I complex formation in ARF siRNA-treated H358 cells [3]
